Assay results reported in the nanobody polyreactivity screen of Harvey et al. (2022).

Assay: yeast display, Sf9 membrane polyspecificity reagent, FACS + sequencing; frameworks hold sequencing errors
How it was run: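 Genes from sorted yeast were amplified by colony PCR, read by MiSeq 2 × 250 sequencing and filtered on CDR length. These cells carried a synthetic nanobody library in Saccharomyces cerevisiae BJ5465 and were sorted by FACS into low and high (top ~1%) gates on anti-HA and streptavidin fluorescence. Polyreactivity is labelled according to the gate of origin.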

Sequence	polyreactivity (PSR sort gate)
QVQLVESGGGLVQAGGSLRLSCAASGSILYVYAMGWYRQAPGKERELVAVITSGGSTNYADSVKGRFTISRDNAKNTVYLQMHSLKPEDSAVYHCAAYYDYDWKYAPSFDYGYWGQGTQVTVSS	low polyreactivity
QVQLVESGGGLVQAGGSLRLSCAASGSILYYYTMGWYRQAPGKERELVAAINTSGGITYYADSVKGRFTISRDNAKNTVYLQMNSLKPEDTAVYYCAAEGPEIKYYYWGQGTQVTVSL	low polyreactivity
QVQLVESGGGLVQAGGSLRLSCAASGSIMVRYAMGWYRQAPGKERELVAAITSGGSTYADSVKGRFTISRDNAKNTVYLQMNSLKPEDTAVYYCARDYFNREAFDYWGQGTQVTVSS	low polyreactivity
QVQLVESGGGLVQAGGSLRLSCAASGSIMYVYAMGWYRQAPGKERELVAVITSGGSTNYAESVKGRFTISRDNAKNTVFLQMNSLKPEDTAVYYCAADPYSVYGGDYWGQGTQVTVSS	low polyreactivity
QVQLVESGGGLVQAGGSLRLSCAASGSINELYAKGWYRQAPGKERELVASITWRGGSTYYADSVKGRFTISRDNAKNTVYLQMNSLKPEDTAVYDCAADVPTASGTYDYWGQGTQVTVSS	low polyreactivity
QVQLVESGGGLVQAGGSLRLSCAASGSINYYAMGWYRQAPGKERELVAAITGSGGSTYYADSVKGRFTISRDNAKNTVYLQMNSLITEDTSVYYCAARYGYIYGPYYYWGQGTQVTVST	high polyreactivity
QVQLVESGGGLVQAGGSLRLSCAASGSINYYAMGWYRQAPGKERELVAAITGSGGSTYYADSVKGRFTISRDNAKNTVYLQMNSLKPEDTAVYYCAARYGYIYGPYYYWGQGTQVTVSS	high polyreactivity
QVQLVESGGGLVQAGGSLRLSCAASGSIQVYYAMGWYRQAPGKERELVAAISSGGSTNYADSVKGRFTISRDNAKNTVYLQMNSLKPEDTAVYYCAKESGWVGAIHYDYWGQGTQVTVSS	low polyreactivity
QVQLVESGGGLVQAGGSLRLSCAASGSIRGYAMGWYRQAPGKERELVAAISWRGGSTYYADSVKGRFTISRDNAKNTVYLQMNSLKPEDTAVYYCAAADGIIESDYWGQGTQVTVSS	low polyreactivity
QVQLVESGGGLVQAGGSLRLSCAASGSIRYYVMGWYRQAPGKERELVAGINWSGGSTYYADSVKGRFTISRDNAKNTVYLQMNSLKPEDTAVYYCAARFVGVRDGYYYWGQGTQVTVSS	high polyreactivity
QVQLVESGGGLVQAGGSLRLSCAASGSISADYVMGWYRQAPGKDRELVAAISVSAGTTYYADSVKGRFTISRDNAKNTVYLQMNSLKPEDTAVYYCAATDSYYWLYYYGYSPGNDYWGQGTQVTVSS	low polyreactivity
QVQLVESGGGLVQAGGSLRLSCAASGSISDVYAMGSYRQAPGKETELVAAITSGASTYYADSVKGRFTISRDNAKNTVYLQMNSLKPEDTAVYYCAADSDSQWGMDYWGQGTQVTVSS	low polyreactivity
QVQLVESGGGLVQAGGSLRLSCAASGSISFLYTMGWYRQAPGKERELVAAITGSTASTYYADSVKGCFTISRDNAKNTVYLQMNSLKPEDTAVYYCAAYWYAEGYWVSRDYWGQGTQVTVSS	low polyreactivity
QVQLVESGGGLVQAGGSLRLSCAASGSISGSYAMGWYRQAPGKERELVASITTSGGGTYYADSVKGRFTISRDNAKNTVYLQMNSLKPEDTAVYYCAVEYGYPYAGLDYWGQGTQVTVSS	low polyreactivity
QVQLVESGGGLVQAGGSLRLSCAASGSISGYYARGWYRQAPGKERELVASIRYTGARTYYADSVKGRFTISRDNAKYTVYVQMNSLKPEDTAVYYCAATEFTYYYSYDYWGQGTLVTVSS	low polyreactivity
QVQLVESGGGLVQAGGSLRLSCAASGSISIQYVMGWYRPAPGKERELVAAIRVIGGSTSYADSVKGRFTISRDNAKNTVYLQMNSLKPEDTAVYYCAADWAWTISDGYYYGYPQYDYWGQGTQVTVSS	high polyreactivity
QVQLVESGGGLVQAGGSLRLSCAASGSISPQNVMGWYRQAPGKERELVAAITGGGSTNYADSVKGRFTISRDNAKNTVYLQMNSLKPEDTAVYYCNADYFQDRLDYWGHGTQVTVSS	low polyreactivity
QVQLVESGGGLVQAGGSLRLSCAASGSISPWYAMGWYRQAPGKERELVAAIRGNGGSTYYADSVKGRFTISRDNAKNTVYLQMNSLKPEDTAVYYCNAVYRRPIFYYWGQGTQVTVSS	low polyreactivity
QVQLVESGGGLVQAGGSLRLSCAASGSISPYNAKGWYRQAPGKERELVAAISSGGRTYYAVSVKGRFTISRDNAKNTVYLQMNSLKPEDTAVYYCNKYPLRPYRGLGVYYRSDYWGQGTQVTVSS	high polyreactivity
QVQLVESGGGLVQAGGSLRLSCAASGSISPYNAMGWYRQAPGKERELVAAISSGGRTYYADSVKGRFTISRDNAKNTVYLQMNSLKPEDTAVYYCARGYWRVYGYSFWYTPEVGYWGQGTQVTVSS	high polyreactivity
QVQLVESGGGLVQAGGSLRLSCAASGSISPYYAMGWYRQEHGKEREMVAAISSGGSTYYADSVKGRFTISRDNAKNTVYLQMNSLKPEDTAVYYCAKAYNYLGYYKYLRYGKFCYWGEGTQVTVSS	high polyreactivity
QVQLVESGGGLVQAGGSLRLSCAASGSISSAYGMGWYIQAPGKERELVATITSGGSTNYADSVKGRFTISRDNAKNTVYLQMNSLTPEDTAVYYCAVDRYALYSGGDYWGQGTQVTVSS	low polyreactivity

Sequence	polyreactivity (PSR sort gate)
QVQLVESGGGLVQAGGSLRLSCAASGSISSNAMGWYRQAPGKERELVAAISGSVGSTYYADSVKGRFTISRDNAKNTVYLQMNSLKREDTAVYYCAADAEAGRYVYGASSELGYDYWGQGTQVTVSS	low polyreactivity
QVQLVESGGGLVQAGGSLRLSCAASGSISSQYGMGWYRQAAGKERDLVATIRDGGRTNYADSVKGRFTISRDNGKNTVYLQMNSLKPEDTAVYYCAALYWYYYTWPLYDYWVQGTQVTVSS	low polyreactivity
QVQLVESGGGLVQAGGSLRLSCAASGSISVANAMGWYRQAPGKERELVAAITDSGDDTYYADSVKGRFTISRDNAKNTVYLQMNSLKPEDTAVYYCAVEAWSVPPYDYWGQGTQVTVSS	low polyreactivity
QVQLVESGGGLVQAGGSLRLSCAASGSISVWYVMGWYRQAPGKERELVAAITRSGGSTFYADSVKGRLTISRDNAKNTVYLQMNSLKPEDTAVYYCAADVGVAWGYGYWGQGTQVTVSS	low polyreactivity
QVQLVESGGGLVQAGGSLRLSCAASGSISYFNAMGWYRQAPGKERELVAAITSGGSTYYADSVKGRFTISRDNAKNTVYLQMNSLKPEDTAVYYCNAPLEWGVYAAQNWDDGYWGQGTQVTVSS	low polyreactivity
QVQLVESGGGLVQAGGSLRLSCAASGSISYRYAMGWYRQAPGKERELVAAISYRGGTTYYADSVKGRFTISRDNAKNTVYLQMNSLKPEDTAVYYCADDFFGSSYPFYYWGQGTQVTVSS	high polyreactivity
QVQLVESGGGLVQAGGSLRLSCAASGSISYSYAMGWYRQAPGKERELVAAISWRGVSTYYADSVKGRFTISRDNAKNTVYLQMNSLKPEDTAVYYCNAVHHYPEHIGGGYWGQGTQVTVSS	low polyreactivity
QVQLVESGGGLVQAGGSLRLSCAASGSISYYAMGWYRQAPGKEMELVAAISQSGGSTYYADSVKGRFTISRDNAKNTVYLQMNSLKPEDTAVYYCAAKSPYSSYYPYGYWGQGTQVTVSS	high polyreactivity
QVQLVESGGGLVQAGGSLRLSCAASGSISYYNAMGWYRQAPGKERELVATITDSGGSTYYADSVKGRFTISRDNAKNTVYLQMNSLKPEDTAVYYCAVDYSEWYSIYDYWGQGTQVTVSS	low polyreactivity
QVQLVESGGGLVQAGGSLRLSCAASGSISYYNAMGWYRQAPGKERELVATITDSGGSTYYADSVKGRFTISRDNAKNTVYLQMNSLKPEDTAVYYCNADYWAVNYDYWGQGSQVTVSS	low polyreactivity
QVQLVESGGGLVQAGGSLRLSCAASGSIVRFYAMGWYRQAPGKERELVASITSGGSTNYADSVKGRFTISRDNAKNTVYLQMNSLKPEDTAVYYCAVRLKGYRRRDYWGQGTQVTVSS	high polyreactivity
QVQLVESGGGLVQAGGSLRLSCAASGSIVRSYAMGWYRQAPGKERELVAAITGGANTYYADSVKGRFTISRDNAKNTVYLQMNSLKPEDTAVYYCAASPIQTGSIFSTFYSYRSYYWGQGTQVTVSS	high polyreactivity
QVQLVESGGGLVQAGGSLRLSCAASGSIVSYYAMGWYRQAPGIERELVAAITTRGGRSYYADSVMGRFTISRDYAKNTVYLPMNSLKPEDTAVYYFNRYPGYIQGDYDYWGQGTQVTVSS	high polyreactivity
QVQLVESGGGLVQAGGSLRLSCAASGSIVVHNAMGWYRQAPGKERELVAAITWSGGSTYYADSVKGRFTISRDNAKNTVYLQMNSLKPVDTAVYYCAAEDVAAQWAYESPTSYWYYYWGQGTQVTVSS	low polyreactivity
QVQLVESGGGLVQAGGSLRLSCAASGSIVVVYDKGWYRQAPGKERELVAAISRRGGNTYYADSVKGRFTISRDNAKNTVYLQMNSLKPEDTAVYYCNAVRTRKAFDYWGQGTQVTVSS	low polyreactivity
QVQLVESGGGLVQAGGSLRLSCAASGSIVYRYSMGWYRQAPGKERELVAGITFGAGTYYADSVKGRFTISRDNAKNTVYLQMNSLKPEDTAVYYCNAIHLPRHRDYWGQGTQVTVSS	low polyreactivity
QVQLVESGGGLVQAGGSLRLSCAASGSIWHKAMGWYRQAPGKERELVASSTNYADSVKGRITISRDNAKNTVYLQMNSLKPEDTAVYYCALEQGVNRNHDYWGQGTQVTVSS	low polyreactivity
QVQLVESGGGLVQAGGSLRLSCAASGSIWYYAMGWYRQAPWTERELVAAIRRGGSTYYADYVKGRFTISRDNAKNTVYVQMNSMKPEDTAVYYCAASWNYYKLDYWGQGTQVTVSS	high polyreactivity
QVQLVESGGGLVQAGGSLRLSCAASGSIYDIYAMGWYGQAPGKERELVAAIRSGDRTHYADSVKGRFTISRDNAKNTVYLQMNSLKPEDTAVYYCAADRYIYLNREHDYWGQGTQVTVSS	low polyreactivity
QVQLVESGGGLVQAGGSLRLSCAASGSIYDWYSMGWNIQAPGKERELVAAISSGDSTYYADSVKGRFTISRDNAKNTVYLQMNSLKPEDTAVYYCAAVTKLSGIRYNYWGQGTQVTVSS	low polyreactivity
QVQLVESGGGLVQAGGSLRLSCAASGSIYESYAMGWYRQAPGKERELVADITYDGGITYYADSVKGRFTISRDNAKNTVYLQMNSLKPEDTAVYYCATEYRYWLSDYSTYFPYDYWGQGSQVTVSS	low polyreactivity
